Consider three substances from PMC5227068.

The target in assay [1] is human EPCR on CHO745-EPCR cells (human) (UniProt Q9UNN8). Briefly: flow cytometry on cells; competition: CHO745-EPCR cells coincubated for 30 min with 50 μg/ml (660 nM) or 250 μg/ml (3.3 µM) CIDR domains and 25 μg/ml (446 nM) APC; APC detected by anti-human protein C antibody.
The target in assay [2] is recombinant human CD36 (human) (UniProt P16671). Put plainly: BLI; Octet Qke; hisCD36 immobilised on Ni-NTA biosensors, CIDR domains in solution; kinetics buffer (PBS, 0.02% Tween-20, 100 μg/ml bovine serum albumin, 0.005% sodium azide); association 600 or 900 s, dissociation 300 to 600 s; 1:1 fit.
For assay [3] the target is unchanged. Briefly: BLI; Octet Qke; hisCD36 immobilised on Ni-NTA biosensors, CIDR domain in kinetics buffer (PBS, 0.02% Tween-20, 100 ug/ml BSA, 0.005% sodium azide); association 600 or 900 s, dissociation 300 to 600 s; double-reference subtracted data fitted to a 1:1 binding model.
Assay [4] deals with recombinant human endothelial protein C receptor (human) (UniProt Q9UNN8). Put plainly: BLI; Octet Qke; EPCR on the biosensor, CIDR domain in solution; protocol as reported previously (ref. 40); double-reference subtracted data fitted to a 1:1 binding model.

pKd: −log10 of the molar value.

Chain of recombinant human CD36 (human) (P16671 whole entry, the tested form may be a part): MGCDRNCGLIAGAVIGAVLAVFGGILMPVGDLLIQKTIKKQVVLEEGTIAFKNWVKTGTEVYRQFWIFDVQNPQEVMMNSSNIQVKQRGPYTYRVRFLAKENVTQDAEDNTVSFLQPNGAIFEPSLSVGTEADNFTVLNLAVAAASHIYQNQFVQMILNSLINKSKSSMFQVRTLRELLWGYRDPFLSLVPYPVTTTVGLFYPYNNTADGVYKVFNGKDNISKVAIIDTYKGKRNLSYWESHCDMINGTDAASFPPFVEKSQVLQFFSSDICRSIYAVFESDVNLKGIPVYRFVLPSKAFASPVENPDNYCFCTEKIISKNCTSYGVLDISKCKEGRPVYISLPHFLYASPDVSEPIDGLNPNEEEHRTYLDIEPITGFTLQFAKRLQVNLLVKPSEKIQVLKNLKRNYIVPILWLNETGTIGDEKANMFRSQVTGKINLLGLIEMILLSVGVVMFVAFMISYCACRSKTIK
Chain of recombinant human endothelial protein C receptor (human) (Q9UNN8 18-238): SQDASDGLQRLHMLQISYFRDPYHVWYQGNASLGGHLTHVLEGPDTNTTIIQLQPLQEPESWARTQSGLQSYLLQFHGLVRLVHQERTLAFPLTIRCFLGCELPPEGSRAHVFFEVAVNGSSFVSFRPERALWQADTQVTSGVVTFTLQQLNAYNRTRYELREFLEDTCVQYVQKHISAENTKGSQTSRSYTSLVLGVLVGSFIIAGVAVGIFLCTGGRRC
Chain of human EPCR on CHO745-EPCR cells (human) (Q9UNN8 18-238): as above

For the substance “P. falciparum var07 CIDRα1.4 (domain or fragment)”, in assay [1], the percent reduction of APC binding at 50 μg/ml CIDR came out at 85% and the percent reduction of APC binding at 250 μg/ml CIDR was 98%.

In the case of “P. falciparum var14 CIDRα5 (domain or fragment)”, the pKd in assay [2] was 8.49. In addition, in assay [3], the koff was 2.99e-05 s⁻¹ and the kon stood at 9280 M⁻¹ s⁻¹.

With “P. reichenowi var71 CIDRα1.4 (domain or fragment)”, in assay [4], the off-rate constant (koff) was 0.000268 s⁻¹ and the kon is 11800 M⁻¹ s⁻¹.
